Where no end group is shown, it is not given here.
How the values were obtained:
[1] = biological target: T1, SARS-CoV-2 main protease (M^pro), wild type (SARS-CoV-2, UniProt P0DTD1); assay: […]
[2] = biological target: T1, SARS-CoV-2 main protease (M^pro), wild …; assay: cell-based or functional assay

## YLQYAVLRHKRREC (also: cyclic, mode of cyclization not given here) [cyclic peptide 1]
[1]
  Ki: 14 nM
[2]
  IC50, inhibition of M^pro proteolytic activity (FRET substrate cleavage): 70 nM

Source: article doi:10.1101/2021.08.23.457419 (bioRxiv, 2021)
